Data from publication PMC10456876.
Like-named read-outs stand apart in the source and are kept apart here.

What was measured:
[1] = biological target: human telomeric nucleosome core particle (teloNCP) (human) (UniProt P68431); assay: cryo-EM structure; TRF1core-teloNCP complex from the glycerol gradient, cross-linked with 0.5 mM BS3; 2:1 complex at 2.7 Å, 4:1 complex at 6.7 Å (rigid-body docking)
[2] = biological target: human telomeric nucleosome core particle (teloNCP) (human) (UniProt P68431); assay: as above; remark: listed apart in the source
[3] = biological target: human telomeric nucleosome core particle (teloNCP), P68431;P62805;P04908;P06899; assay: EMSA; settings: point at 200 nM TRF1core; triplicate; parent: est. 100; read off a plot

Sequence of wild-type MBP-tagged TRF1core (TRF1-TIN2-TPP1) (Q9BSI4 whole entry, looked up): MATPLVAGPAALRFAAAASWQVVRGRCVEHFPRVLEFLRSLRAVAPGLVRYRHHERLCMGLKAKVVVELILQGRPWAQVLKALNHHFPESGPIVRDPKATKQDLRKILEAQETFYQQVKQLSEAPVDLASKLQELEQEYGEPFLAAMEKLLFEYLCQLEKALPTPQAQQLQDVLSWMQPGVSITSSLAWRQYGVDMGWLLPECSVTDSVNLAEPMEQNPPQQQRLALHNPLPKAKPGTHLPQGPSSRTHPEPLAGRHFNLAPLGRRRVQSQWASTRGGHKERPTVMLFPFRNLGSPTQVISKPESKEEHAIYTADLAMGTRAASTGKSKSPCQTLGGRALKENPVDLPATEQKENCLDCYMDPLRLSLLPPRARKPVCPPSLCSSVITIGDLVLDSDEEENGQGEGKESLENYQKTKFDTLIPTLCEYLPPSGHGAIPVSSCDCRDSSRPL
Sequence of wild-type MBP-tagged TRF1core (TRF1-TIN2-TPP1) (P54274 whole entry, looked up, stated change not applied): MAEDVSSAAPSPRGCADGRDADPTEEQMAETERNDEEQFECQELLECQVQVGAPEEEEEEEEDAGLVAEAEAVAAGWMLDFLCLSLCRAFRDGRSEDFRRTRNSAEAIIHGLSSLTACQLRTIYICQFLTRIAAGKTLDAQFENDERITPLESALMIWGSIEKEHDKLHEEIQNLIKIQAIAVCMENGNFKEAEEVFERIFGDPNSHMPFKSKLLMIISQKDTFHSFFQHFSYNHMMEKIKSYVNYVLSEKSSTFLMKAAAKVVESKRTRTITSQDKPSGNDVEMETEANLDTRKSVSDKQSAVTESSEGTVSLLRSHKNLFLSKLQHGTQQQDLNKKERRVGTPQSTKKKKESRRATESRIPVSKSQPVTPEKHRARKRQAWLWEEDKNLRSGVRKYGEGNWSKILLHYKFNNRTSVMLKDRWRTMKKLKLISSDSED

TRF1 Myb domains bound per teloNCP [1]	TRF1 Myb domains bound per teloNCP [2]	response [3]	Substance
2	4		shelterin TRF1-TIN2-TPP1 subcomplex (TRF1core), untagged (from UniProt P54274 1-439; Q9BSI4 1-451)
		17 % Bound	wild-type MBP-tagged TRF1core (TRF1-TIN2-TPP1) (from UniProt P54274;Q9BSI4) S434A; S435A; S437A
